Where a chain is given by its changes, count along the chain named.
Columns and labels:
YbaBHi [1] = biological target: T1, YbaBHi (Haemophilus influenzae, UniProt P44711 1-109); experiment: EMSA; first step, n=2.09; EMSA: 100 pM biotin-DNA, 50 mM Tris-HCl pH 7.5, 1 mM DTT, protease inhibitor 8 ul/ml, phosphatase inhibitor 2 ul/ml, 10% glycerol, no added salt stated, 20 min, room temperature; conditions: protein: recombinant; tags: pET15b vector tag, His-Trap purified; chain copies: 2; label: 5' biotin on strand 1; blunt
YbaBEc [2] = biological target: T2, YbaBEc (Escherichia coli, UniProt P0A8B5 1-109); experiment: EMSA; first step, n=1.93; EMSA: 100 pM biotin-DNA, 50 mM Tris-HCl pH 7.5, 1 mM DTT, protease inhibitor 8 ul/ml, phosphatase inhibitor 2 ul/ml, 10% glycerol, no added salt stated, 20 min, room temperature; conditions: protein: recombinant; tags: pET200-TOPO vector tag, His-Trap purified; chain copies: 2; label: 5' biotin on strand 1; blunt
T2 sequence: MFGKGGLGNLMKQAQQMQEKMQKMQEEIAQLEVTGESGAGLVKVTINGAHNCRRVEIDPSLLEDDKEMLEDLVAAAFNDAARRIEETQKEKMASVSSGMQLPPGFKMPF

YbaBHi [3] = biological target: T1, YbaBHi; experiment: EMSA; first step, apparent monomer-equivalent; EMSA: 100 pM biotin-DNA, 50 mM Tris-HCl pH 7.5, 1 mM DTT, protease inhibitor 8 ul/ml, phosphatase inhibitor 2 ul/ml, 10% glycerol, no added salt stated, 20 min, room temperature; conditions: protein: recombinant; tags: pET15b vector tag, His-Trap purified; chain copies: 2; label: 5' biotin on strand 1; blunt
YbaBEc [4] = biological target: T2, YbaBEc; experiment: as above; conditions: protein: recombinant; tags: pET200-TOPO vector tag, His-Trap purified; chain copies: 2; label: 5' biotin on strand 1; blunt
YbaBHi [5] = biological target: T1, YbaBHi; experiment: EMSA; no detectable effect of mutation; EMSA: 100 pM biotin-DNA, 50 mM Tris-HCl pH 7.5, 1 mM DTT, protease inhibitor 8 ul/ml, phosphatase inhibitor 2 ul/ml, 10% glycerol, no added salt stated, 20 min, room temperature; conditions: protein: recombinant; tags: pET15b vector tag, His-Trap purified; chain copies: 2; label: 5' biotin on strand 1; blunt
YbaBEc [6] = biological target: T2, YbaBEc; experiment: as above; conditions: protein: recombinant; tags: pET200-TOPO vector tag, His-Trap purified; chain copies: 2; label: 5' biotin on strand 1; blunt
EbfC = biological target: T3, EbfC (Borrelia burgdorferi, UniProt O51418 1-99); experiment: EMSA; specific plus nonspecific complex; EMSA: 100 pM biotin-DNA, 50 mM Tris-HCl pH 7.5, 1 mM DTT, protease inhibitor 8 ul/ml, phosphatase inhibitor 2 ul/ml, 10% glycerol, no added salt stated, 20 min, room temperature; conditions: protein: recombinant; tags: His-Trap purified (His tag implied); chain copies: 2; label: 5' biotin on strand 1; blunt
T3 sequence: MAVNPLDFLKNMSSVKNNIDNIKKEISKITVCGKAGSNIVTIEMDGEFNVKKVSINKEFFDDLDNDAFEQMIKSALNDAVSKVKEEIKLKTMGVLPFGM

YbaBHi [7] = biological target: T1, YbaBHi; experiment: EMSA; protein at half its Kd; EMSA: 100 pM biotin-DNA, 50 mM Tris-HCl pH 7.5, 1 mM DTT, protease inhibitor 8 ul/ml, phosphatase inhibitor 2 ul/ml, 10% glycerol, no added salt stated, 20 min, room temperature; conditions: protein: recombinant; tags: pET15b vector tag, His-Trap purified; chain copies: 2; label: 5' biotin on strand 1; blunt
YbaBEc [8] = biological target: T2, YbaBEc; experiment: as above; conditions: protein: recombinant; tags: pET200-TOPO vector tag, His-Trap purified; chain copies: 2; label: 5' biotin on strand 1; blunt
[9] = biological target: the molecule itself; experiment: SEC; data not shown; Superdex 75 10/300 GL, 200 mM NaCl, 50 mM Tris-HCl pH 7.5, 1% glycerol; 200 ul of about 0.2 mg/ml YbaBHi; mass from a calibration curve of standards

B1: b-WT (dsDNA)
DNA 1: TTGTAATGAGTAGTGCATTTGCAATGGAGAGATTTTGGGGAGTTGTTTAAAATTACATTTGCGTTTTGTTAAAATGTAACAGCTGAATGTAACAAAATTATATATTTAAATCTTTGAAATATTGC
DNA 2: GCAATATTTCAAAGATTTAAATATATAATTTTGTTACATTCAGCTGTTACATTTTAACAAAACGCAAATGTAATTTTAAACAACTCCCCAAAATCTCTCCATTGCAAATGCACTACTCATTACAA
For B1, the Ka (YbaBHi [1]) was 1.7e+13 M-2, the Ka (YbaBEc [2]) was 1.7e+14 M-2 and the Kd (YbaBHi [3]) was 240 nM. It also gave a Kd (YbaBEc [4]) of 77 nM.

B2: b-C30 (dsDNA)
DNA 1: B1 DNA 1 with T75C, G76A, T77C, A94T
DNA 2: B1 DNA 2 with T32A, A49G, C50T, A51G
B2: binds (YbaBHi [5]); binds (YbaBEc [6]).

B3: b-C50 (dsDNA)
DNA 1: B1 DNA 1 with T75C, G76A, T77C, A92T
DNA 2: B1 DNA 2 with T34A, A49G, C50T, A51G
B3: binds (YbaBHi [5]); binds (YbaBEc [6]).

B4: b-C20 (dsDNA)
DNA 1: B1 DNA 1 with T75C, G76A, T77C, C93A
DNA 2: B1 DNA 2 with G33T, A49G, C50T, A51G
B4: binds (YbaBHi [5]); binds (YbaBEc [6]).

B5: b-C2 (dsDNA)
DNA 1: B1 DNA 1 with T75C, G76A, T77C
DNA 2: B1 DNA 2 with A49G, C50T, A51G
B5: binds (EbfC); binds (YbaBHi [7]); binds (YbaBEc [8]).

B6: b-C40 (dsDNA)
DNA 1: B1 DNA 1 with T75C, G76A, T77C, A91G
DNA 2: B1 DNA 2 with T35C, A49G, C50T, A51G
B6: binds (YbaBHi [5]); binds (YbaBEc [6]).

B7: Haemophilus influenzae YbaB (natural protein, H. influenzae, UniProt P44711 1-109, looked up)
chain: MFGKGGLGGLMKQAQQMQEKMQKMQEEIAQLEVTGESGAGLVKITINGAHNCRRIDIDPSLMEDDKEMLEDLIAAAFNDAVRRAEELQKEKMASVTAGMPLPPGMKFPF
notes: Purified on a His-Trap column; removal of the tag is not mentioned; also called YbaBHi; HI0442; source: E. coli Rosetta pLysS, purified (His-Trap HP)
In the case of B7, the “stoichiometry N” value [9] is reported as 2.

— paper PMC2720974, “DNA-binding by Haemophilus influenzae and Escherichia coli YbaB, members of a widely-distributed bacterial protein family” (BMC Microbiology, 2009)
